Legend:
[1] = molecular target: DosR K182Q K182Q (Mycobacterium tuberculosis H37Rv) (UniProt P9WMF9); assay: EMSA
[2] = molecular target: DosR K182R K182R (Mycobacterium tuberculosis H37Rv) (UniProt P9WMF9); assay: EMSA

TTGATGCCTCCTAATCGATGGAAACGGATGCCTTTGATCCGACCAGCCCATCGTGGCCAGGGCTAGGGACAGAAGTCCCCGAAGCGCGGGCCATTTGTCCGCGCCCGTCGGTGATCCACTTGGGGACCATTGACCCTGTTGTCTGCCA (double strand) [acr promoter fragment]
binding [1]: binds more weakly
binding [2]: binds

From article PMC5861037
